From PMC10088672 (2023)

B1: NCV2SG53 monoclonal antibody (human IgG) (antibody, V domains shown)
VH: QVQMVESGGGLVRPGGSLRLSCAASGFTFSDYYMSWIRQAPGKGLEWISYISSSGSSMNYADSVKGRFTISRDNAKNSLFLQMNSLRAEDTAVYYCAREFDLTKIIMVPPYWGQGTLVTVSS
VL: AIQLTQSPSSLSASVGDRVTITCRASQGISSYLAWYQQKPGKAPKVLIYAASTLQSGVPSRFSGSGSGTDFTLTISSLQPEDFATYYCQQLKSYPLTFGGGTKVEIT
B2: NCV2SG48 monoclonal antibody (human IgG) (antibody, V domains shown)
VH: EVQLVESGGGLIQPGGSLRLSCAASGFIVSRNYMNWVRQAPGKGLEWVALIYSGGSTFYADSVKGRFTISRDNSKNTLYLQMNSLRAEDTAVYYCARDLVVYGLDYWGQGTLVTVSS
VL: AIQLTQSPSSLSASVGDRVTITCRASQGISSHLAWYQQKPGKAPKLLIFAASTLQSGVPSRFSGSGSGTDFTLTISSLQPEDFATYYCQHLNSNPPITFGQGTRLEIK

What was measured:
[1] = target: T1, SARS-CoV-2 spike RBD, Wuhan-Hu-1 (SARS-CoV-2, UniProt P0DTC2 321-536); test: BLI
[2] = target: T1, SARS-CoV-2 spike RBD, Wuhan-Hu-1; test: BLI; remark: listed apart in the source

Binder | koff [1] [s⁻¹] | Kd [2] [nM]
B1 | 0.00022 | 2.6
B2 | 0.00015 | 2.5
